From publication PMC6010752, “Development of GMP‐1 a molecular chaperone network modulator protecting mitochondrial function and its assessment in fly and mice models of Alzheimer's disease” (Journal of Cellular and Molecular Medicine, 2018)
Ends that are not written are not given here.

T1: FKBP51 (Homo sapiens, UniProt Q13451)
T1 construct: gene FKBP5; full-length (Gst-tag-free)
T1 sequence (Q13451 1-457): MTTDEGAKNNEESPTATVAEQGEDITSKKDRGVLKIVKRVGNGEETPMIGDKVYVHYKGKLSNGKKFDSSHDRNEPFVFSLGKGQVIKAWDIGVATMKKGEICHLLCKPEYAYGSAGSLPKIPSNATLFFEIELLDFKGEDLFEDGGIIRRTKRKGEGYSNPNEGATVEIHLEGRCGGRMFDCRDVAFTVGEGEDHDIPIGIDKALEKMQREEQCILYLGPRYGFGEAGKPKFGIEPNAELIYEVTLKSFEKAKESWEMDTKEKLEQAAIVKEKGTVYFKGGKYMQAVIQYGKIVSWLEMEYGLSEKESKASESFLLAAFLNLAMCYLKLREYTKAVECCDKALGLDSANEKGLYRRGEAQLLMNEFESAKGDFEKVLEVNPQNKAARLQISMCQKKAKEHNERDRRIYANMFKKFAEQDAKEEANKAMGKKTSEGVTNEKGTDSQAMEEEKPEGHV

T2: Tom34 (Homo sapiens, UniProt Q15785)
T2 construct: gene TOMM34; full-length (Gst-tag-free)
T2 sequence (Q15785 1-309): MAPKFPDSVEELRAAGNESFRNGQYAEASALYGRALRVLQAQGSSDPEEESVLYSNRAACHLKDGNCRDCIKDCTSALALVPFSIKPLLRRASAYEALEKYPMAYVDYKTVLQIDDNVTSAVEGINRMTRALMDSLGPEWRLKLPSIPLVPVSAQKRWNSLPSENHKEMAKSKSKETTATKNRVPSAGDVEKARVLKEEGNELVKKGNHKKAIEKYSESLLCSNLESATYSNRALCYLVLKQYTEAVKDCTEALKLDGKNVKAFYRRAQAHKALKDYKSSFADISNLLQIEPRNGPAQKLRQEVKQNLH

T3: Tom70 (Homo sapiens, UniProt O94826)
T3 construct: gene TOMM70; cytoplasm-exposed domain of Tom70, amino acids 65-608 (Gst-tag-free)
T3 sequence (O94826 65-608): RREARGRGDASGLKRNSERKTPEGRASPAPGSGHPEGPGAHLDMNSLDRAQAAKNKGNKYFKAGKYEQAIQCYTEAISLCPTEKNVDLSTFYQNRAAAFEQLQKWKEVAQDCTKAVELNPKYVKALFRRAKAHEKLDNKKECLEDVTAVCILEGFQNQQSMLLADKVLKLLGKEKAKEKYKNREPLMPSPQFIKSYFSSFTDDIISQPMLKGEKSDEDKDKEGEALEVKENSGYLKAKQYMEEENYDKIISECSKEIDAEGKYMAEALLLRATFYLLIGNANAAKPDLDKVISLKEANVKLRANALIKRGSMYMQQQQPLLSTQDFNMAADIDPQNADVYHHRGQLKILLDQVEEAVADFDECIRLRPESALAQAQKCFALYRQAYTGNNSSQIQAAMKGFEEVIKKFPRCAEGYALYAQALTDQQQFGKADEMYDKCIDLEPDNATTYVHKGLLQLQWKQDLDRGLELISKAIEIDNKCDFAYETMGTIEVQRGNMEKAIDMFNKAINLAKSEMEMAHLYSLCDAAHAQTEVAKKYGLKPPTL

T4: PP5 (human, UniProt P53041 1-499)
T4 construct: PP5, human TPR protein, full length; Cloned into a pGEX6 vector; cDNA from the IMAGE consortium; source: E. coli BL21, purified (Gst‐trap 4B), Gst removed with PreScission protease
T4 sequence (looked up): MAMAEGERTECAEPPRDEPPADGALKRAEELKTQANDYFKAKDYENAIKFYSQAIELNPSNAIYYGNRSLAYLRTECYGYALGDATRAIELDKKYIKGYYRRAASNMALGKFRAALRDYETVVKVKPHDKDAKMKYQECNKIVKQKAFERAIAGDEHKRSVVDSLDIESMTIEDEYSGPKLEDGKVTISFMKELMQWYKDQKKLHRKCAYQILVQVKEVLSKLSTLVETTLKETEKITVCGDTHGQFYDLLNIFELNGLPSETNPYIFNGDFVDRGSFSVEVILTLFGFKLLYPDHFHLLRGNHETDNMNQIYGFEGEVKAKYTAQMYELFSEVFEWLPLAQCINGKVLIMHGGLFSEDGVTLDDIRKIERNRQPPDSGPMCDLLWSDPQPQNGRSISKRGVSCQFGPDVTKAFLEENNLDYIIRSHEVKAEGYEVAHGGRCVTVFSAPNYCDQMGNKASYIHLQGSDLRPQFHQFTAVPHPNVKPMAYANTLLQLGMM

T5: FKBP51 (human, UniProt Q13451 1-457)
T5 construct: FKBP51, human TPR protein, full length; Cloned into a pGEX6 vector; cDNA from the IMAGE consortium; source: E. coli BL21, purified (Gst‐trap 4B), Gst removed with PreScission protease
T5 sequence (looked up): T1 sequence (Q13451 1-457)

T6: Tom34 (human, UniProt Q15785 1-309)
T6 construct: Tom34, human TPR protein, full length; Cloned into a pGEX6 vector; cDNA from the IMAGE consortium; source: E. coli BL21, purified (Gst‐trap 4B), Gst removed with PreScission protease
T6 sequence (looked up): T2 sequence (Q15785 1-309)

T7: Tom70, cytoplasm‐exposed domain, amino acids 65‐608 (human, UniProt O94826 65-608)
T7 construct: Tom70, human, mitochondrial import receptor, cytoplasm‐exposed domain, amino acids 65‐608; Cloned into a pGEX6 vector; cDNA from the IMAGE consortium; also called human Tom70 protein; source: E. coli BL21, purified (Gst‐trap 4B), Gst removed with PreScission protease
T7 sequence (looked up): T3 sequence (O94826 65-608)

B1: Peptide of 6 × His tag and the 10 C‐terminal amino acids of human Hsp90 alpha, coupled to HRP (C90‐HRP) (peptide)
peptide: HHHHHHDDTSRMEEVD-OH
modifications: also: coupled to horse-radish peroxidase (HRP)
notes: 10 amino acids of the C‐terminus of human Hsp90 alpha; also called Hsp90‐derived peptide; Hsp90 peptide conjugated to HRP; source: synthetic peptide (GL Biochem, Shanghai), coupled to HRP with the Lightning‐link HRP labeling kit; not shown: His6, N-terminal, kept

Tests used:
FKBP51 [1] = molecular target: T1, FKBP51; assay: dot-blot competition of Hsp90 C-terminal peptide-HRP (C90-HRP) with purified protein; format: binding
Tom34 [2] = molecular target: T2, Tom34; assay: as above; format: binding
Tom70 = molecular target: T3, Tom70; assay: as above; format: binding
PP5 = molecular target: T4, PP5; assay: far-Western, overlay or dot blot; Gst‐tag‐free proteins applied to nitrocellulose membrane, blocked with 3% BSA in TBS‐T; C90‐HRP (1 × 500 dilution) incubated for 1 hour; ECL signal; with DMSO or increasing concentrations of the compound GMP‐1; conditions: both partners purified
FKBP51 [3] = molecular target: T5, FKBP51; assay: as above; conditions: both partners purified
Tom34 [4] = molecular target: T6, Tom34; assay: as above; conditions: both partners purified
[5] = molecular target: T7, Tom70, cytoplasm‐exposed domain, amino …; assay: as above; conditions: both partners purified

Molecule	IC50 (FKBP51 [1]) [µM]	IC50 (Tom34 [2]) [µM]	IC50 (Tom70) [µM]	binding result (PP5)	binding result (FKBP51 [3])	binding result (Tom34 [4])	binding result [5]
COCc1cc(O)n2c(n1)nc1ccccc12 [GMP-1, 2‐(methoxymethyl)pyrimido[1,2‐a]benzimidazol‐4‐ol]	150	180	45	–	–	–	–
B1	–	–	–	binds	binds	binds	binds
